Data reported in US20230149509A1 (Genentech, published 2023).

Experiments:
[1] = molecular target: T1, human complement component 1q (C1q) (human, UniProt P02745 23-245; P02746 28-253; P02747 29-245); assay: BLI; tested as the mixture XENP24306+XENP32803
T1 construct: The subunit composition is from general knowledge; also called human C1q

[2] = molecular target: T2, CD122/CD132 on cynomolgus monkey lymphocytes (CD8+ T cells and NK cells in cynomolgus PBMCs) (cynomolgus monkey, UniProt Q38J85 27-551; A0A2K5VGJ6 23-369); assay: cell-based or functional assay
T2 sequence (looked up) 1: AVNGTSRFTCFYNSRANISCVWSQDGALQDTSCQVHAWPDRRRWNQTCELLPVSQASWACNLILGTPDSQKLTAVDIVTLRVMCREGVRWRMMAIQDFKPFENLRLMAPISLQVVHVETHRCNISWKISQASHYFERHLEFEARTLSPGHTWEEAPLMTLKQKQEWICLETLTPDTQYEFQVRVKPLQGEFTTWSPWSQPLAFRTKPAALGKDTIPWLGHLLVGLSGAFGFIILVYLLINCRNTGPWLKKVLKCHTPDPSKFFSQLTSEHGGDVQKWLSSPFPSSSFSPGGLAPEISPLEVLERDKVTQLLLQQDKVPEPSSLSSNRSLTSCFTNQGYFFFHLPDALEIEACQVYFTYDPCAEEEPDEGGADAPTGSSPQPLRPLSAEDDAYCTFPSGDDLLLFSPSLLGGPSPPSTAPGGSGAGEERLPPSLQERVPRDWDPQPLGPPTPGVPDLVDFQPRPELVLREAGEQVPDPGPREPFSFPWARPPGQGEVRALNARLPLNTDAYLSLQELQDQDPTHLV
T2 sequence (looked up) 2: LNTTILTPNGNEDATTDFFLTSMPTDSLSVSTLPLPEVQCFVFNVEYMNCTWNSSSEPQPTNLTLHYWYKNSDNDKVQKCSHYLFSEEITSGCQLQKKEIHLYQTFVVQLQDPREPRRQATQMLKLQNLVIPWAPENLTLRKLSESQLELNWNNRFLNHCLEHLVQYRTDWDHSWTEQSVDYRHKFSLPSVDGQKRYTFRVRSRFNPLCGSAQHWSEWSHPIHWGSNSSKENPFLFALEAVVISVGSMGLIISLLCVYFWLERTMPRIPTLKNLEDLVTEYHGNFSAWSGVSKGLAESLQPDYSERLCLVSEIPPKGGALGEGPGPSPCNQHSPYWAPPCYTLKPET

[3] = molecular target: T3, CD122/CD132 on human lymphocytes (CD8+ T cells and NK cells in human PBMCs) (human, UniProt P31785 23-369); assay: cell-based or functional assay
T3 sequence 1: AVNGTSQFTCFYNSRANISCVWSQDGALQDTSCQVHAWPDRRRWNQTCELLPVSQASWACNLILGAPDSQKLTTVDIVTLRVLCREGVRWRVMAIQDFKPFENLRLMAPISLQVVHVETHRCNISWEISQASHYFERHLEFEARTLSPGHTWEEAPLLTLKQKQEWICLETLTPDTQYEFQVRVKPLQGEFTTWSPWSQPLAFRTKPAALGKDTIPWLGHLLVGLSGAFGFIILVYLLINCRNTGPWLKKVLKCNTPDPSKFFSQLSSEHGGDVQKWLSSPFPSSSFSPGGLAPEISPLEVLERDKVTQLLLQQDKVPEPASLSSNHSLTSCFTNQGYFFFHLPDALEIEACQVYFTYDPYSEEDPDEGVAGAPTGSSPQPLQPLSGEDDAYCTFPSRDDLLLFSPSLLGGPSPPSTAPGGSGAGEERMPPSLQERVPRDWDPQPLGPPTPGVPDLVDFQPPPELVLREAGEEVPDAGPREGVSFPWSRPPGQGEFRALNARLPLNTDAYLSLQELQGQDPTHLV
T3 sequence 2: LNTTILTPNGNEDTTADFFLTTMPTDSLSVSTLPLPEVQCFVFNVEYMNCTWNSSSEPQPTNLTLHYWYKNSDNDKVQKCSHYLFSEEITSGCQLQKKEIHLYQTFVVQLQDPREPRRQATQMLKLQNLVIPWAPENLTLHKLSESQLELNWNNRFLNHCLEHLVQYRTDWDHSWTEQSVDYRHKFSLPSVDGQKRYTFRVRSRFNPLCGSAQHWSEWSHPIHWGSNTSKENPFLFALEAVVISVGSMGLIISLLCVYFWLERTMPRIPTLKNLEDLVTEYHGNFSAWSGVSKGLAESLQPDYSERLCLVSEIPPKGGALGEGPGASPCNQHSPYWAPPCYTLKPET

cynomolgus monkey FcRn = molecular target: T4, cynomolgus monkey FcRn (cynomolgus monkey, UniProt Q8SPV9 24-297; Q8SPW0 21-119); assay: BLI, pH 6.0; tested as the mixture
T4 construct: The construct is not described

human FcRn = molecular target: T5, human FcRn (human, UniProt P55899 24-297; P61769 21-119); assay: BLI, pH 6.0; tested as the mixture
T5 construct: The construct is not described; also called human neonatal Fc receptor

mouse FcRn = molecular target: T6, mouse FcRn (mouse, UniProt Q61559 22-297; P01887 21-119); assay: BLI, pH 6.0; tested as the mixture
T6 construct: The construct is not described
T6 sequence (looked up): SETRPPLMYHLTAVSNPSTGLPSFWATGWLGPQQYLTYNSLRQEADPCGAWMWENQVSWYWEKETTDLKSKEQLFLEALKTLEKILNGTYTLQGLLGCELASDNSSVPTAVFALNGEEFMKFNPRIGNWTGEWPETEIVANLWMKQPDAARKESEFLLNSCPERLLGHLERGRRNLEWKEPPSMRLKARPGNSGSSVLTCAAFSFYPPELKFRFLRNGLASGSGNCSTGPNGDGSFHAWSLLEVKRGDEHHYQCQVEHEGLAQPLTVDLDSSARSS
T6 sequence (b2m, looked up): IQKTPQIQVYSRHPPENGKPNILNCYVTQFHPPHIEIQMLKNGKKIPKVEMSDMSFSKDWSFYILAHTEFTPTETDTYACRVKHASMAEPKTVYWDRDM

T1 sequence (P02745 23-245 limits assumed, chain 1 of 3): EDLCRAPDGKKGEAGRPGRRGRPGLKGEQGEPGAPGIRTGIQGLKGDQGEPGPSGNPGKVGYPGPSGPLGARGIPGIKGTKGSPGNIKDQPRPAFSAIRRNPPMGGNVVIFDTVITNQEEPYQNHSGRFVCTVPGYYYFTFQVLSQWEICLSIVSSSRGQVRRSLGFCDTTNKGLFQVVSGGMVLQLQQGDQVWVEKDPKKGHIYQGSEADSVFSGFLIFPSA
T1 sequence (P02746 28-253 limits assumed, chain 2 of 3): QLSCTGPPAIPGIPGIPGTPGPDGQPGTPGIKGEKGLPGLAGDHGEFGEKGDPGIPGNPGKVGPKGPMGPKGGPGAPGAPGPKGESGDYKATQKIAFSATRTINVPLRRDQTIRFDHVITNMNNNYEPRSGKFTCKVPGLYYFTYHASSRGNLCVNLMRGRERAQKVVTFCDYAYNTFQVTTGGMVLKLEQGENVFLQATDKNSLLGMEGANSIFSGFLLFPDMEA
T1 sequence (P02747 29-245 limits assumed, chain 3 of 3): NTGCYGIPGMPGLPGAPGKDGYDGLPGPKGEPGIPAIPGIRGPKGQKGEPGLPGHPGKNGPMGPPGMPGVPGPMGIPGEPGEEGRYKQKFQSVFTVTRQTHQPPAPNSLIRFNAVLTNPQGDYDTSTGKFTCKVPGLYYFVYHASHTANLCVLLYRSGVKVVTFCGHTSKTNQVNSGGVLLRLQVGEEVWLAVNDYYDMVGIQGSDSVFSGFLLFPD
T5 sequence (P55899 24-297 limits assumed, chain 1 of 2): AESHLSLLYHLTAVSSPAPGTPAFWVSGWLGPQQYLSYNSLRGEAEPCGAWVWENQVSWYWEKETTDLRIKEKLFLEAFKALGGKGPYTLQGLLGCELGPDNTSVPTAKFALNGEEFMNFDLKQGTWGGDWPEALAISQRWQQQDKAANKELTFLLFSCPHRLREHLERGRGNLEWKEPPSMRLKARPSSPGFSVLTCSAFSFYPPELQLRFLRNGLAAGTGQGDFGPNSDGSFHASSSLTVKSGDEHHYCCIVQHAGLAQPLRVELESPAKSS
T5 sequence (P61769 21-119 limits assumed, chain 2 of 2): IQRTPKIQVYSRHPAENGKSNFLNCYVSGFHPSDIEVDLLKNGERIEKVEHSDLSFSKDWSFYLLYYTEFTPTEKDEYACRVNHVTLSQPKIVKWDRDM
T4 sequence (Q8SPV9 24-297 limits assumed, chain 1 of 2): as the sequence (P55899 24-297 limits assumed, chain 1 of 2) above, with N39D, E44Q, G99S, S189G, S190N, L217M, S269T counted along it
T4 sequence (Q8SPW0 21-119 limits assumed, chain 2 of 2): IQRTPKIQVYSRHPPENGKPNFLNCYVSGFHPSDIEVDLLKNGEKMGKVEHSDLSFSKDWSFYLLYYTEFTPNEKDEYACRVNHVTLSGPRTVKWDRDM

B1: XENP24306 (Fc fusion)
chain 1: NWVNVISDLKKIEDLIQSMHIDATLYTESNVHPSCKVTAMKCFLLELQVISLESGDASIHDTVQDLIILANNSLSSNGNVTESGCKECEELEEKNIKEFLQSFVHIVQMFINTSGGGGSEPKSSDKTHTCPPCPAPPVAGPSVFLFPPKPKDTLMISRTPEVTCVVVDVKHEDPEVKFNWYVDGVEVHNAKTKPREEEYNSTYRVVSVLTVLHQDWLNGKEYKCKVSNKALPAPIEKTISKAKGQPREPQVYTLPPSREEMTKNQVSLTCDVSGFYPSDIAVEWESDGQPENNYKTTPPVLDSDGSFFLYSKLTVDKSRWEQGDVFSCSVLHEALHSHYTQKSLSLSPGK
chain 2: ITCPPPMSVEHADIWVKSYSLYSRERYICNSGFKRKAGTSSLTECVLNKATNVAHWTTPSLKCIRGGGGSEPKSSDKTHTCPPCPAPPVAGPSVFLFPPKPKDTLMISRTPEVTCVVVDVKHEDPEVKFNWYVDGVEVHNAKTKPREEQYNSTYRVVSVLTVLHQDWLNGKEYKCKVSNKALPAPIEKTISKAKGQPREPQVYTLPPSREQMTKNQVKLTCLVKGFYPSDIAVEWESNGQPENNYKTTPPVLDSDGSFFLYSKLTVDKSRWQQGNVFSCSVLHEALHSHYTQKSLSLSPGK
notes: All experiments used a mixture of XENP24306 (~82%) and XENP32803 (~18%), printed as 'XENP24306+XENP32803'; Each result is written once for each of the two members; also called XmAb24306; XENP24306+XENP32803 (the ~82% component of the tested combination)
- binding result [1]: no binding
- CD8+ T cell proliferation in cynomolgus monkey PBMCs, EC50 [2]: 3.8 µg/mL
- NK-cell proliferation in cynomolgus monkey PBMCs, EC50 [2]: 0.5 µg/mL
- CD8+ T cell proliferation (Ki67+) in human PBMCs, EC50 [3]: 12.7 µg/mL
- NK-cell proliferation (Ki67+) in human PBMCs, EC50 [3]: 1.2 µg/mL
- potency on CD8+ terminal effector T cell proliferation (Ki67) in human PBMC, fold lower than XENP22853 (wild-type IL-15/wild-type IL-15Rα heterodimer Fc fusion) [3]: ~400 fold
- potency on CD8+ terminal effector T cell proliferation (Ki67) in human PBMC, fold lower than recombinant wild-type IL-15 [3]: ~900 fold
- binding result (cynomolgus monkey FcRn): binds
- binding result (human FcRn): binds
- binding result (mouse FcRn): binds

B2: XENP32803 (Fc fusion)
chain 1: NWVNVISDLKKIEDLIQSMHIDATLYTESNVHPSCKVTAMKCFLLELQVISLESGDASIHDTVQDLIILANNSLSSNGNVTESGCKECEELEEKNIKEFLQSFVHIVQMFINTSGGGGSEPKSSDKTHTCPPCPAPPVAGPSVFLFPPKPKDTLMISRTPEVTCVVVDVKHEDPEVKFNWYVDGVEVHNAKTKPREEEYNSTYRVVSVLTVLHQDWLNGKEYKCKVSNKALPAPIEKTISKAKGQPREPQVYTLPPSREEMTKNQVSLTCDVSGFYPSDIAVEWESDGQPENNYKTTPPVLDSDGSFFLYSKLTVDKSRWEQGDVFSCSVLHEALHSHYTQKSLSLSPGK
chain 2: ITCPPPMSVEHADIWVKSYSLYSRERYICNSGFKRKAGTSSLTECVLNKATNVAHWTTPSLKCIRGGGGSEPKSSDKTHTCPPCPAPPVAGPSVFLFPPTPKDTLMISRTPEVTCVVVDVKHEDPEVKFNWYVDGVEVHNAKTKPREEQYNSTYRVVSVLTVLHQDWLNGKEYKCKVSNKALPAPIEKTISKAKGQPREPQVYTLPPSREQMTKNQVKLTCLVKGFYPSDIAVEWESNGQPENNYKTTPPVLDSDGSFFLYSKLTVDKSRWQQGNVFSCSVLHEALHSHYTQKSLSLSPGK
notes: All experiments used a mixture of XENP24306 (~82%) and XENP32803 (~18%), printed as 'XENP24306+XENP32803'; Each result is written once for each of the two members; also called XENP24306+XENP32803 (the ~18% component of the tested combination); IL15/IL15Rα heterodimeric protein
- binding result [1]: no binding
- CD8+ T cell proliferation in cynomolgus monkey PBMCs, EC50 [2]: 3.8 µg/mL
- NK-cell proliferation in cynomolgus monkey PBMCs, EC50 [2]: 0.5 µg/mL
- CD8+ T cell proliferation (Ki67+) in human PBMCs, EC50 [3]: 12.7 µg/mL
- NK-cell proliferation (Ki67+) in human PBMCs, EC50 [3]: 1.2 µg/mL
- potency on CD8+ terminal effector T cell proliferation (Ki67) in human PBMC, fold lower than XENP22853 (wild-type IL-15/wild-type IL-15Rα heterodimer Fc fusion) [3]: ~400 fold
- potency on CD8+ terminal effector T cell proliferation (Ki67) in human PBMC, fold lower than recombinant wild-type IL-15 [3]: ~900 fold
- binding result (cynomolgus monkey FcRn): binds
- binding result (human FcRn): binds
- binding result (mouse FcRn): binds
